The values that follow come from paper PMC4655421.

The subject of this series is C=C(OP(=O)(O)O)C(=O)O. Kind of series: Steady-state ATP production by pyruvate kinase monitored by Rho-MatB. Type of series: biochemical, rabbit. The note with it: pH 7.5.
Setting [1] is: other: single curve fit, Figure 6B, 250 μM ADP, 20 °C.

The Km is the substrate concentration at which the rate is half of its maximum. Consider pyruvate kinase (Oryctolagus cuniculus), for which the Km (other: n = 5, 20.0 °C) is 103 µM. Besides, under setting [1], the Km was 75.5 ± 3.4 µM and the Vmax was 0.019 ± 0.002 μM s^–1.
